Measured values: the supplement of paper PMC9112550, “Optimization of the antimicrobial peptide Bac7 by deep mutational scanning” (BMC Biology, 2022)

Tested on: Escherichia coli TOP10
Assay: shrunken log2 fold change of peptide-encoding DNA abundance (4.5 h post-induction vs induction); higher = less antimicrobial activity (less host growth inhibition)
Conditions: time post-induction: 4.5 h; library: site-saturation at positions 5, 18, 19, 20
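Further: peptides expressed intracellularly from a pBAD plasmid library in pooled LB shake-flask culture, induced with 0.3% L-arabinose, DNA abundance read by NGS, three biological replicates, DESeq2 with apeglm shrinkage.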

Sequence | shrunken log2 fold change
RRIRQRPPRLPRPRPRPIKWPRP | 0.00957
RRIRFRPPRLPRPRPRPGSNPRP | -0.624
RRIRWRPPRLPRPRPRPYRWPRP | -0.0731
RRIRVRPPRLPRPRPRPEGNPRP | 0.00902
RRIRVRPPRLPRPRPRPRSRPRP | 0.227
RRIRTRPPRLPRPRPRPGTDPRP | -0.253
RRIRSRPPRLPRPRPRPIPDPRP | -0.0495
RRIRARPPRLPRPRPRPETDPRP | 0.764
RRIRDRPPRLPRPRPRPPYTPRP | -0.0539
RRIRWRPPRLPRPRPRPMCWPRP | 0.883
RRIRDRPPRLPRPRPRPSADPRP | 0.368
RRIRWRPPRLPRPRPRPGDCPRP | 0.00839
RRIRVRPPRLPRPRPRPMMNPRP | -0.28
RRIRSRPPRLPRPRPRPEMMPRP | 0.681
RRIRGRPPRLPRPRPRPNHCPRP | -0.112
RRIRARPPRLPRPRPRPLVEPRP | 0.666
RRIRGRPPRLPRPRPRPQFDPRP | 0.61
RRIRARPPRLPRPRPRPDQGPRP | 0.261
RRIRFRPPRLPRPRPRPHHNPRP | -0.754
RRIRPRPPRLPRPRPRPKNNPRP | -0.475
RRIRQRPPRLPRPRPRPFATPRP | 0.275
RRIRTRPPRLPRPRPRPEMVPRP | 0.134
RRIRIRPPRLPRPRPRPSNAPRP | -0.0615
RRIRQRPPRLPRPRPRPWFWPRP | 0.00186
RRIRIRPPRLPRPRPRPAQVPRP | -0.00946

Sequence | shrunken log2 fold change
RRIRWRPPRLPRPRPRPNGEPRP | -0.0407
RRIRLRPPRLPRPRPRPHGPPRP | 0.101
RRIRSRPPRLPRPRPRPESQPRP | 0.0194
RRIRFRPPRLPRPRPRPIFAPRP | 0.161
RRIRNRPPRLPRPRPRPRKSPRP | 0.132
RRIRFRPPRLPRPRPRPYPTPRP | -0.324
RRIRDRPPRLPRPRPRPPFLPRP | 0.0487
RRIRSRPPRLPRPRPRPFILPRP | -0.695
RRIRTRPPRLPRPRPRPDLNPRP | 0.0685
RRIRHRPPRLPRPRPRPWRYPRP | -0.49
RRIRSRPPRLPRPRPRPNHRPRP | -0.426
RRIRRRPPRLPRPRPRPYDCPRP | -0.113
RRIRSRPPRLPRPRPRPACHPRP | -0.0735
RRIRTRPPRLPRPRPRPVVWPRP | 0.617
RRIRSRPPRLPRPRPRPFEWPRP | 0.0589
RRIRNRPPRLPRPRPRPTRYPRP | 0.217
RRIRYRPPRLPRPRPRPPRTPRP | -0.0112
RRIRWRPPRLPRPRPRPMRAPRP | 1.2
RRIRGRPPRLPRPRPRPGRNPRP | 0.307
RRIRIRPPRLPRPRPRPQQSPRP | -0.113
RRIRKRPPRLPRPRPRPIPWPRP | 0.466
RRIRYRPPRLPRPRPRPITIPRP | -0.149
RRIRGRPPRLPRPRPRPDPEPRP | 0.593
RRIRDRPPRLPRPRPRPVSCPRP | 0.342
RRIRKRPPRLPRPRPRPCEGPRP | 0.0796

Sequence | shrunken log2 fold change
RRIRGRPPRLPRPRPRPSKEPRP | 0.289
RRIRMRPPRLPRPRPRPFWYPRP | -0.0609
RRIRSRPPRLPRPRPRPYECPRP | -0.356
RRIRGRPPRLPRPRPRPLAFPRP | 0.487
RRIRDRPPRLPRPRPRPIPFPRP | -0.306
RRIRHRPPRLPRPRPRPQAQPRP | -0.208
RRIRCRPPRLPRPRPRPEANPRP | 0.477
RRIRIRPPRLPRPRPRPFIFPRP | -0.696
RRIRLRPPRLPRPRPRPRFMPRP | -0.244
RRIRNRPPRLPRPRPRPHPEPRP | 0.00649
RRIRDRPPRLPRPRPRPAQFPRP | 0.442
RRIRTRPPRLPRPRPRPGMDPRP | 0.0475
RRIRVRPPRLPRPRPRPNDIPRP | -0.235
RRIRTRPPRLPRPRPRPICEPRP | 0.0143
RRIRCRPPRLPRPRPRPIKCPRP | -0.165
RRIRNRPPRLPRPRPRPDKGPRP | 0.00408
RRIRRRPPRLPRPRPRPLRLPRP | 0.59
RRIRSRPPRLPRPRPRPAACPRP | 0.222
RRIRWRPPRLPRPRPRPSEIPRP | -0.178
RRIRFRPPRLPRPRPRPKWAPRP | -0.075
RRIRMRPPRLPRPRPRPLRKPRP | 1.54
RRIRSRPPRLPRPRPRPNSSPRP | -0.31
RRIRLRPPRLPRPRPRPEDFPRP | 0.0854
RRIRRRPPRLPRPRPRPCSDPRP | 0.00368
RRIRERPPRLPRPRPRPYEWPRP | -0.00963

Sequence | shrunken log2 fold change
RRIRCRPPRLPRPRPRPGKSPRP | 0.0822
RRIRDRPPRLPRPRPRPTCDPRP | 0.224
RRIRGRPPRLPRPRPRPNVIPRP | 0.211
RRIRFRPPRLPRPRPRPNWMPRP | -0.0436
RRIRTRPPRLPRPRPRPNKDPRP | -0.54
RRIRPRPPRLPRPRPRPNILPRP | -0.305
RRIRYRPPRLPRPRPRPCFFPRP | -0.619
RRIRGRPPRLPRPRPRPSIWPRP | 0.511
RRIRTRPPRLPRPRPRPRTKPRP | 0.74
RRIRHRPPRLPRPRPRPARTPRP | 0.19
RRIRKRPPRLPRPRPRPHWEPRP | -0.102
RRIRYRPPRLPRPRPRPCLQPRP | -0.00663
RRIRFRPPRLPRPRPRPAARPRP | 0.192
RRIRFRPPRLPRPRPRPVQKPRP | 0.00252
RRIRNRPPRLPRPRPRPVHIPRP | -0.15
RRIRQRPPRLPRPRPRPKEFPRP | 0.0639
RRIRTRPPRLPRPRPRPLKRPRP | -0.236
RRIRPRPPRLPRPRPRPGWMPRP | -0.0745
RRIRYRPPRLPRPRPRPFSPPRP | -0.319
RRIRERPPRLPRPRPRPTNRPRP | -0.242
RRIRFRPPRLPRPRPRPGLWPRP | 0.526
RRIRARPPRLPRPRPRPDWAPRP | 0.524
RRIRARPPRLPRPRPRPASHPRP | 2.2
RRIRARPPRLPRPRPRPYPGPRP | 0.0384
RRIRGRPPRLPRPRPRPLRIPRP | 0.175

Sequence | shrunken log2 fold change
RRIRWRPPRLPRPRPRPNKGPRP | -0.346
RRIRMRPPRLPRPRPRPLIKPRP | 0.0477
RRIRTRPPRLPRPRPRPEQYPRP | -0.0335
RRIRCRPPRLPRPRPRPWAYPRP | -0.508
RRIRVRPPRLPRPRPRPWCEPRP | -0.293
RRIRWRPPRLPRPRPRPFKDPRP | -0.252
RRIRPRPPRLPRPRPRPKKIPRP | 0.0064
RRIRNRPPRLPRPRPRPQDHPRP | -0.33
RRIRVRPPRLPRPRPRPVRIPRP | 0.337
RRIRWRPPRLPRPRPRPACYPRP | 0.443
RRIRTRPPRLPRPRPRPSFAPRP | -0.126
RRIRVRPPRLPRPRPRPVLQPRP | 0.164
RRIRQRPPRLPRPRPRPTVMPRP | 0.0964
RRIRTRPPRLPRPRPRPRMGPRP | 0.108
RRIRPRPPRLPRPRPRPEIFPRP | 0.137
RRIRARPPRLPRPRPRPDRHPRP | 0.0379
RRIRFRPPRLPRPRPRPCLPPRP | -0.783
RRIRIRPPRLPRPRPRPAQRPRP | 0.0422
RRIRVRPPRLPRPRPRPADVPRP | 0.000571
RRIRHRPPRLPRPRPRPNMYPRP | -0.963
RRIRMRPPRLPRPRPRPLLMPRP | 0.205
RRIRLRPPRLPRPRPRPQKSPRP | -0.139
RRIRFRPPRLPRPRPRPDAEPRP | 0.373
RRIRIRPPRLPRPRPRPEFVPRP | -0.0754
RRIRERPPRLPRPRPRPTGDPRP | 0.321
